Experimental data published in patent US20260102474A1 (DEUTSCHES KREBSFORSCHUNGSZENTRUM STIFTUNG DES FFENTLICHEN …, published 2026).

Key:
Assay in all cases: ELISA on coated his-tagged Fc receptor, anti-human-Fc HRP detection
[1] = target: his-tagged FcγRI protein (R&D Systems) (UniProt P12314 16-288)
[2] = target: his-tagged FcRIIIa protein (R&D Systems) (UniProt P08637 17-208)
[3] = target: T1, his-tagged FcγRIIa protein (R&D Systems) (UniProt P12318 36-218)
T1 sequence (looked up): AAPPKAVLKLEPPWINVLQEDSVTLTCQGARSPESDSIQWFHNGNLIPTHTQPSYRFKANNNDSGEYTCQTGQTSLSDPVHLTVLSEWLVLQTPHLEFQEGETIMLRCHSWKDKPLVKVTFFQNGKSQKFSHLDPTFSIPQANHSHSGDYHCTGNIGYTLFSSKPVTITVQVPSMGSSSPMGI

[4] = target: T2, his-tagged FcγRIIb protein (R&D Systems) (UniProt P31994 46-217)
T2 sequence (looked up): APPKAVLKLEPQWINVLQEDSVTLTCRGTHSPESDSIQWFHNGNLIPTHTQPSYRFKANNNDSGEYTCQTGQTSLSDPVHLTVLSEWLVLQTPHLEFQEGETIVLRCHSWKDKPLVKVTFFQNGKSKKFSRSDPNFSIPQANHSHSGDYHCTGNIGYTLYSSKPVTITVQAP

Measured: binding result

Sequence of his-tagged FcγRI protein (R&D Systems) (P12314 16-288 limits assumed): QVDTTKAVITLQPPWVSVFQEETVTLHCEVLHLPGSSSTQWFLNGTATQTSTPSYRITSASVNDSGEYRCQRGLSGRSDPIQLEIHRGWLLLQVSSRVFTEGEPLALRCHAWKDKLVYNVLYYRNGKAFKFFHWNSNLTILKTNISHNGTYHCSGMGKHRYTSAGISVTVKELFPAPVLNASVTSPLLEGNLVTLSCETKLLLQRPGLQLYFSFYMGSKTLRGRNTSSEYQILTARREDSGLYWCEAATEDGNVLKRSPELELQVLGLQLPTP
Sequence of his-tagged FcRIIIa protein (R&D Systems) (P08637 17-208 limits assumed): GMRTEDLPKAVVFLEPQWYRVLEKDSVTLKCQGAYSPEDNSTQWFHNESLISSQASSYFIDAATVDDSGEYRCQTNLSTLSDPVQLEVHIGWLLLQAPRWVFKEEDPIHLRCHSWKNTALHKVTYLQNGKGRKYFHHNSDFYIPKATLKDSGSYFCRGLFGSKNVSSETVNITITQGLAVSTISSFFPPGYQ

B1: ACE2-M1-FcKO (Fc fusion)
chain: STIEEQAKYFLDKFNHEAEDLFYQSSLASWNYNTNITEENVQNMNNAGDKWSAFLKEQSTYAQMYPLQEIQNLTVKLQLQALQQNGSSVLSEDKSKRLNTILNTMSTIYSTGKVCNPDNPQECLLLEPGLNEIMANSLDYNERLWAWESWRSEVGKQLRPLYEEYVVLKNEMARANHYEDYGDYWRGDYEVNGVDGYDYSRGQLIEDVEHTFEEIKPLYEHLHAYVRAKLMNAYPSYISPIGCLPAHLLGDMWGRFWTNLYSLTVPFGQKPNIDVTDAMVDQAWDAQRIFKEAEKFFVSVGLPNMTQGFWEYSMLTDPGNVQKAVCHPTAWDLGKGDFRILMCTKVTMDDFLTAHREMGRIQYDMAYAAQPFLLRNGANEGFHEAVGEIMSLSAATPKHLKSIGLLSPDFQEDNETEINFLLKQALTIVGTLPFTYMLEKWRWMVFKGEIPKDQWMKKWWEMKREIVGVVEPVPHDETYCDPASLFHVSNDYSFIRYYTRTLYQFQFQEALCQAAKHEGPLHKCDISNSTEAGQKLFNMLRLGKSEPWTLALENVVGAKNMNVRPLLNYFEPLFTWLKDQNKNSFVGWSTDWSPYADQSIKVRISLKSALGDKAYEWNDNEMYLFRSSVAYAMRQYFLKVKNQMILFGEEDVRVANLKPRISFNFFVTAPKNVSDIIPRTEVEKAIRMSRSRINDAFRLNDNSLEFLGIQPTLGPPNQPPVSSGGGGSGGGGSGGGGSEPKSSDKTHTCPPCPAPPVAGPSVFLFPPKPKDTLMISRTPEVTCVVVGVSHEDPEVKFNWYVDGVEVHNAKTKPREEQYNSTYRVVSVLTVLHQDWLNGKEYKCKVSNKQLPSPIEKTISKAKGQPGQPREPQVYTLPPSRDELTKNQVSLTCLVKGFYPSDIAVEWESNGQPENNYKTTPPVLDSDGSFFLYSKLTVDKSRWQQGNVFSCSVMHEALHNHYTQKSLSLSPGK
notes: also called M1 version
no binding: all assays above
